Experimental findings from publication doi:10.1101/2022.05.14.491971 are described below.

In the assay the target is Mab3862, antitoxin of the type 2 TA class of Mycobacterium abscessus (Mycobacterium abscessus (ATCC 19977)). The experiment in a line: crystal structure.

Substance “Mab3862, antitoxin of the type 2 TA class of Mycobacterium abscessus (natural protein)” registered a stoichiometry N of 2.
